Key:
[1] = target: AspT L60C mutant (three endogenous Cys replaced with alanine, then leucine 60 replaced with Cys) (Tetragenococcus halophilus) (UniProt Q8L3K8); experiment: cross-linking; spontaneous inter-molecular disulphide; purified protein (0.5 ug) in SDS sample buffer without 2-mercaptoethanol (non-reducing) or with 5% (reducing), 37°C 30 min; SDS-PAGE (Coomassie) and western blot with a His-tag antibody
[2] = target: the molecule itself; experiment: SEC-MALS; purified AspT in DDM (2.4 mg/ml, dialysed); Superdex 200 Increase 10/300 GL; 20 mM HEPES-NaOH pH 7.0, 500 mM NaCl, 200 mM Asp-KOH, 0.01% DDM, 20% glycerol; 0.8 ml/min; MALS, RI and UV detectors

| stoichiometry N [1] | Molecule | stoichiometry N [2] |
| --- | --- | --- |
| 2 | AspT L60C mutant (three endogenous Cys replaced with alanine, then leucine 60 replaced with Cys) (from UniProt Q8L3K8 1-543) (natural protein) |  |
|  | aspartate:alanine antiporter (AspT) of Tetragenococcus halophilus, wild type, histidine-tagged (natural protein, UniProt Q8L3K8 1-543, looked up, aspartate:alanine antiporter AspT, Tetragenococcus halophilus, 543 amino-acid residues (57.2 kDa); expressed from the asp operon in pTrc99A (pTrcAspD/T-His); also called AspT WT; WT; source: Ni Sepharose Excel and SEC for the comparison with L60C; not shown: His6, internal (in loop 5), kept) MNAIGNFLVGTPVFTIFICLALGYLLGKLKIGSFTLGATVGVLIVALLIGQLGVFPRDTLLGDIFFDFFMFAIGYRVGPSFISSMKKFGAKIVYATLIFLVSAFIVAYACFKMFHIGPGIAAGIIAGGLTQSAVIGSSLETISKLPISDHLKTLYSNQIPIVYTLTYVFGTIGVLIFLRDIMPKLMHIDLKKQAVKTAKELDMIPVPVIVASTHFYTINDGSSLIGQTLGTVNTKFAKGLVAAGLNDSADMASVINAGDVLAISGGIDEIGRAVQEFNLLEVTGKTKAYVSKQVVLKKNFSADVLKNAQDKGVLVATLAGDVMDPAQFSTLKPAESVTLVGQKDAVSEVQSQLGRLRAAENIINYSWFALGIALSAALGIVGTKVSGVPIALGGGTASLIVGLVQSIYRDKHAHMDTIPDSLLEFFQSIGLNLFIATVGLSAAKTFISAIQSMGISVLLIGAVISILPHIITFVICYYLMKMEPISIIGAQTGADTLSAALNDVSERVGSDASPFFAAAVAPAYAIGNIFLTLMGPIFIVLLS | 2 |

Source: article PMC9527358, “Oligomeric state of the aspartate:alanine transporter from Tetragenococcus halophilus” (Journal of Biochemistry, 2022)
